Assay results published in patent publication US20200048358A1.

Target: chimeric OX40 construct 1549: Human OX40 with mouse domains 1A and 4B and region non-annotated extracellular region (aa 30-65 and aa 127-214) (human; mouse) (UniProt P47741)
Assay: flow cytometry, transfected 293-F cells

relative MFI compared to isotype control | Binder
8.7 | anti-OX40 antibody 1482/1483 (antibody, V domains shown) VH: EVQLLESGGGLVQPGGSLRLSCAASGFTFSSYAMSWVRQAPGKGLEWVSYISYYSGYTYYADSVKGRFTISRDNSKNTLYLQMNSLRAEDTAVYYCARGYGYLDYWGQGTLVTVSS VL: DIQMTQSPSSLSASVGDRVTITCRASQSISSYLNWYQQKPGKAPKLLIYAASSLQSGVPSRFSGSGSGTDFTLTISSLQPEDFATYYCQQYGSLLTFGQGTKLEIK
12.1 | anti-OX40 antibody 1170/1171 (antibody, V domains shown) VH: EVQLLESGGGLVQPGGSLRLSCAASGFTFGGYYMSWVRQAPGKGLEWVSYIPGSGGSTYYADSVKGRFTISRDNSKNTLYLQMNSLRAEDTAVYYCARYDYYWMDYWGQGTLVTVSS VL: DIQMTQSPSSLSASVGDRVTITCRASQSISSYLNWYQQKPGKAPKLLIYAASSLQSGVPSRFSGSGSGTDFTLTISSLQPEDFATYYCQQGHGSYPHTFGQGTKLEIK
11.3 | anti-OX40 antibody 1166/1167 (antibody, V domains shown) VH: EVQLLESGGGLVQPGGSLRLSCAASGFTFGGYYMSWVRQAPGKGLEWVSAISGSGGSTYYADSVKGRFTISRDNSKNTLYLQMNSLRAEDTAVYYCARYDYASMDYWGQGTLVTVSS VL: DIQMTQSPSSLSASVGDRVTITCRASQSISSYLNWYQQKPGKAPKLLIYAASSLQSGVPSRFSGSGSGTDFTLTISSLQPEDFATYYCQQYYWYGLSTFGQGTKLEIK
8.5 | anti-OX40 antibody 1526/1527 (antibody, V domains shown) VH: EVQLLESGGGLVQPGGSLRLSCAASGFTFSGYSMYWVRQAPGKGLEWVSGIGYSGYGTYYADSVKGRFTISRDNSKNTLYLQMNSLRAEDTAVYYCARYYFHDYAAYSLDYWGQGTLVTVSS VL: DIQMTQSPSSLSASVGDRVTITCRASQSISSYLNWYQQKPGKAPKLLIYAASSLQSGVPSRFSGSGSGTDFTLTISSLQPEDFATYYCQQYGSDSLLTFGQGTKLEIK
11.2 | anti-OX40 antibody 1524/1525 (antibody, V domains shown) VH: EVQLLESGGGLVQPGGSLRLSCAASGFTFGSYYMGWVRQAPGKGLEWVSSIGSYYGYTYYADSVKGRFTISRDNSKNTLYLQMNSLRAEDTAVYYCARHDYGALDYWGQGTLVTVSS VL: DIQMTQSPSSLSASVGDRVTITCRASQSISSYLNWYQQKPGKAPKLLIYAASSLQSGVPSRFSGSGSGTDFTLTISSLQPEDFATYYCQQYGPSGLFTFGQGTKLEIK
10.6 | anti-OX40 antibody 1514/1515 (antibody, V domains shown) VH: EVQLLESGGGLVQPGGSLRLSCAASGFTFGYYYMSWVRQAPGKGLEWVSGISSYGSYTYYADSVKGRFTISRDNSKNTLYLQMNSLRAEDTAVYYCARSGYSNWANSFDYWGQGTLVTVSS VL: DIQMTQSPSSLSASVGDRVTITCRASQSISSYLNWYQQKPGKAPKLLIYAASSLQSGVPSRFSGSGSGTDFTLTISSLQPEDFATYYCQQGDYTLFTFGQGTKLEIK
